Data on one substance can be found in patent publication US5863889A, “ICAM-1/LFA-1 short-chain peptides and method of using same” (The University of Kansas, priority 1996, dated 1999).

The target of one data set is T1, LFA-1 (CD11a) (Homo sapiens, UniProt P20701).
T1 construct: host or cells: Molt3 human T-cell leukemia line
Nature of the data set: Antibody binding assay (FACS): anti-LFA-1 mAb (mouse IgG anti-human CD11a) binding to Molt3 T-cells after peptide incubation. The settings on record: for Fluorescence, % change from control of the medium fluorescence intensity: mAb CD11a, average ± standard error of runs. It is filed as cell-based. How it is done: A 1 ml quantity of the Molt3 inoculum was warmed to 37° C. and transferred by pipette into about 25 ml of a growth culture medium including RPMI 1640 lymphocyte growth medium (Fisher Scientific of St. Louis, Miss.) mixed with 10% by volume fetal calf serum, 100 units/ml penicillin, 100 μg/ml streptomycin and 2 mM glutamine. The inoculated culture was incubated for three to four days at 37° C. under a normal atmosphere having about 5% CO2 added thereto. This culture was capable of being maintained indefinitely by siphoning away the top (non-cell containing) layer and adding 50 ml (or more) of growth culture medium at intervals of three to four days.
An aqueous buffer solution including Dulbecco's phosphate buffered saline and bovine serum albumin ("-PBS/BSA solution") was prepared for use, and included a mixture of 200 mg KH2 PO4, 1.15 g Na2 HPO4, 100 mg CaCl2, 200 mg KCl, 100 mg MgCl2.6H2 O, 8 g NaCl, with distilled water added to a final 1 liter volume at room temperature, thus, forming a "PBS" solution of pH 7.4 to which was added 0.5% by weight bovine serum albumin.
An aliquot of about 7 ml was removed from the incubated culture medium and subjected to washing with the PBS/BSA solution. The washing procedure was initiated by placing the aliquot in a centrifuge (Model GT422 from Jouan, distributed Piruscio & Assoc. of Manchester, Miss.) at 1400 rpm for 6.5 minutes to separate the cells from the growth medium. The supernatant fluid was decanted, a 5 ml portion of PBS/BSA solution was transferred by pipette into the pellet, and the mixture was again centrifuged as before. The resulting supernatant fluid was decanted and the cells from the pellet were resuspended in PBS/BSA solution at a titer of about 1×10^6 cells/ml. A 500 μl portion of the solution containing the resuspended cells was placed in a microcentrifuge (Marathon 13K/M from Fisher Scientific of St. Louis, Miss.) at 3500 rpm for six minutes, to provide a washed pellet.
[…] The cells were incubated with the peptide cocktail at 37° C. for 45 minutes.
After incubation with the peptide cocktail, several antibodies were successively mixed into the incubated solution. A 75 μl portion of anti-IgM solution (a mixture of 10 μl of goat anti-human IgM stock purchased from Jackson Immuno Research of Westgrove, Pa.; and 65 μl of PBS/BSA solution) was added to the peptide cocktail for blocking of nonspecific binding of the secondary antibody. The resulting mixture was incubated for 10 minutes on ice. About 0.1 μg of a primary antibody including mouse IgG anti-human CD11a (purified according to conventional protocols at the University of Kansas Department of Pharmacology and Toxicology from an American Type Culture hybridoma cell line having Catalogue Number HB-202) was next stirred into the mixture, which was then incubated for 30 minutes at room temperature. The incubated mixture was placed in a microcentrifuge at 3500 rpm for six minutes to remove the cells from the mixture, and the cell pellet was washed two times by adding 500 μl aliquots of PBS/BSA solution and microfuging to remove non-bound antibodies from the cells as before. The resulting washed pellet was resuspended in 100 μl of a secondary antibody cocktail including 5 μl of fluorescein isothiocyanate ("FITC") labeled goat anti-mouse IgG (from CALTAG of South San Francisco, Calif.) and 95 μl of PBS/BSA solution. The resulting solution was incubated for 30 minutes at room temperature in the dark.
The incubated solution including the secondary antibody cocktail was microfuged at 3500 rpm for six minutes to remove the cells from the solution, and the cell pellet was washed two times with 500 μl portions of PBS/BSA solution, as before, to remove unbound antibodies. […]

Data set [1] deals with Molt3 cells. Nature of the data set: Homotypic adhesion assay (MDHC-induced clumping of T-cells). The format is cell-based, human. Also on record: key to Homotypic Adhesion Amount: Any sample having a score of "+++" or "++++" is considered to have a significant ability to modulate T-cell binding interaction; Any sample having a score of "+++" or "++++" is considered to have a significant ability to modulate T-cell binding interaction. Particulars: 10 μM MDHC. The procedure:
As before, the T-cells were Molt3 cells prepared in RPMI 1640 growth medium according to Example 2. An approximate 7 ml aliquot of the growth medium was centrifuged (Jouan Model GT422 at 1400 rpm for 6.5 minutes), and the supernatant fluid was decanted. The pellet was resuspended in the supernatant fluid at titer of about 1×10^6 cells/ml, with the excess supernatant fluid being retained for future resuspension of the peptides.
A 228 nmol quantity of the LJCRF-1 (Sequence ID No. 6) peptide described in Table 1 was diluted with the supernatant fluid to a 500 μl final volume, and filtered in microcentrifuge filter tubes (0.22 micron filter; 3500 rpm for 6 minutes). Serial dilution of the filtered peptide with supernatant fluid was conducted to yield five 125 μl peptide solutions to give respective concentrations of about 115 μM, 230 μM, 460 μM, 910 μM, and 1.82 mM. At each concentration, a 125 μl portion of the cell suspension was pipetted into each 125 μl portion of the peptide solutions to yield combined samples having a 250 μl volume. The 250 μl samples were seeded into individual wells in a 48-well tissue culture grade plate (from Costar of Cambridge, Md.) and incubated at 37° C. for 30 minutes. Each sample received 5 μl of 2,5-methyl dihydroxy cinnamate ("MDHC") for a 10 μM final concentration, and was subsequently incubated for about 10 hours at 37° C. MDHC induces intercellular clumping of human T-cells (Tibbetts, Butler, and Benedict, submitted) by activating the LFA/ICAM binding interaction between respective cells.
Pictures were taken of five random fields per sample using an Olympus photomicroscope having a 0.8 mm field at 400×magnification, and a 3.2 mm field of view at 100×magnification. The amount of clumping observed was quantified by determining the mean number of clumps per field ± a standard error.
FIGS. 5, 6, and 7 replicate photographs taken from exemplary peptide assays. FIG. 5 is a photograph of the control sample having no peptides and no MDHC added, from which essentially no clumping of cells is observed. […] Any sample having a score of "+++" or "++++" is considered to have a significant ability to modulate T-cell binding interaction. This is similar to results obtained by incubating similarly treated cells with antibody against either LFA or ICAM.
The homotypic adhesion assay assesses the actual ability of a candidate peptide to modulate the ability of T-cells to adhere with one another.

Data set [2] relates to Molt3 cells. The description is as above. The format is cell-based, human. The settings on record: 10 μM MDHC, listed as LJCRF-2.
The test system of data set [3] is Molt3 cells. Nature of the data set: Cell metabolic assay (MTT). The format is cell-based. The procedure:
After taking the photographs in Example 3 (and in some instances no photographs were taken), cell metabolic activity was assessed by an MTT assay. A 37.5 μl portion of MTT dye (purchased from SIGMA of St. Louis, Mo.), i.e., 3-[4,5-dimethyl thiazole-2yl]-2, 5- diphenyl tetrazolium bromide; thiazolyl blue) was added to each well, and incubated with the cells at 37° C. for about six hours. After incubation, a 250 μl quantity of a MTT solubilization solution (of a type that may be purchased from either Fischer Scientific of St. Louis, Mo. or BCD Labs of Lawrence, Kans.) was added to each well, and incubated with the cells at room temperature overnight. In the morning, the spectrophotometric absorption of each plate was determined at 570 nm in a microplate ELISA reader manufactured by Cambridge Technologies of Water-town, Mass., in order to assess cell viability as an indicator of potential peptide toxicity.

T1 sequence (P20701 26-1170): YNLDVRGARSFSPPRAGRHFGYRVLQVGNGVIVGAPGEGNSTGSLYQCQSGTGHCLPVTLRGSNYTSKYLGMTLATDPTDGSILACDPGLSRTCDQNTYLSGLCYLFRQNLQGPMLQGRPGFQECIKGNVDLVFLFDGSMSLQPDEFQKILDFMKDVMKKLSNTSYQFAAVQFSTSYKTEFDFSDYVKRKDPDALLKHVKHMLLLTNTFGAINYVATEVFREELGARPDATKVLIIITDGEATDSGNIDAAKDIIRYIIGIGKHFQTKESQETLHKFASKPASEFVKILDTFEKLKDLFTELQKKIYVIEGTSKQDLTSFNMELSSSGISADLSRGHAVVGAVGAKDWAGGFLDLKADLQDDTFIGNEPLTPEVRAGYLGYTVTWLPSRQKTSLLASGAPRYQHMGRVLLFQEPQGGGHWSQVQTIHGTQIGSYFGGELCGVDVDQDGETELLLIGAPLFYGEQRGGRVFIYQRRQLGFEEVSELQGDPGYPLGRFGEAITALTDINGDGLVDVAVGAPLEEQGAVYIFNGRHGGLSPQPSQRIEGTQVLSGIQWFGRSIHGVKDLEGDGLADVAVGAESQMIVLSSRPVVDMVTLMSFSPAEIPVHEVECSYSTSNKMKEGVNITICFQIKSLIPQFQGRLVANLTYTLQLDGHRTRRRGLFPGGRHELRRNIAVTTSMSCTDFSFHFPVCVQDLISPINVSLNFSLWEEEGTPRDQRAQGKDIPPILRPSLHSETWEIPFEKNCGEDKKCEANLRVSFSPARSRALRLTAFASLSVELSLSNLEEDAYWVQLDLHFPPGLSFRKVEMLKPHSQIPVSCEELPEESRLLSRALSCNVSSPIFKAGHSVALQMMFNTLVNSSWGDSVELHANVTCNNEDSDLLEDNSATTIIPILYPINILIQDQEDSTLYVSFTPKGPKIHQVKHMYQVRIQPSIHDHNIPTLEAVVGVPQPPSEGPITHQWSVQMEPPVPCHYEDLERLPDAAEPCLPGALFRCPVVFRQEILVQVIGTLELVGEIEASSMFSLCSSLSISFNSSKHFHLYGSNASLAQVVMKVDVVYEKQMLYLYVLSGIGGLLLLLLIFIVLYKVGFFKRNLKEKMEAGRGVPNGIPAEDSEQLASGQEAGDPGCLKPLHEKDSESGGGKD
T1 sequence (P05107 23-769 partner): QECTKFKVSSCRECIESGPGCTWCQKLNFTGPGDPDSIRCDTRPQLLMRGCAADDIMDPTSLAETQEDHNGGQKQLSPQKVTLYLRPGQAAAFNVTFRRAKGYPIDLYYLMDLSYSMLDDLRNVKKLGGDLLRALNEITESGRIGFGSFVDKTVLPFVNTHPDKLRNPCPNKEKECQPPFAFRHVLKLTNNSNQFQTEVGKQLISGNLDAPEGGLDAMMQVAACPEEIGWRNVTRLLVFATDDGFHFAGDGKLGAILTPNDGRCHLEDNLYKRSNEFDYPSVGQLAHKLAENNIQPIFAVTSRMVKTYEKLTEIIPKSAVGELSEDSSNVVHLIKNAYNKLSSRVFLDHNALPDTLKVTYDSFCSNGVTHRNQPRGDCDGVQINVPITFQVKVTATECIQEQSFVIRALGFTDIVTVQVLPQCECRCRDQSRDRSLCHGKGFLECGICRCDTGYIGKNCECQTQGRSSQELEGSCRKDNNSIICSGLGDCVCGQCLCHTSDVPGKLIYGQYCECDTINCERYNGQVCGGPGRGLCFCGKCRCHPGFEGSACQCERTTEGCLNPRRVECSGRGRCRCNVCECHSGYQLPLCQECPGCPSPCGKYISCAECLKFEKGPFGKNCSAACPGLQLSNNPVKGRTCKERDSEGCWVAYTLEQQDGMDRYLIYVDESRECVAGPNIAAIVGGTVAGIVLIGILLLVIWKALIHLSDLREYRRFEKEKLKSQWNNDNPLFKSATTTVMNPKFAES

As to “SC-3-152: ICAM-derived short-chain peptide, Sequence ID No. 11; modulator peptide (DQPKLLGIETPLPKKELLLPGNNRK)”, the “Fluorescence, % change from control of the medium fluorescence intensity” value in the data set with LFA-1 (CD11a) (peptide 2275 μM) is given as “+48 ± 8%”; with LFA-1 (CD11a) (peptide 4550 μM, negative = blocking), -43 ± 7%. Also, the “effect on antibody binding” value in the data set with LFA-1 (CD11a) (peptide 2275 μM) is listed as “enhance such binding”; with LFA-1 (CD11a) (peptide 4550 μM) it was “block antibody binding”. For the same substance, the “Homotypic Adhesion Amount” value is reported as “+++” in the data set on Molt3 cells [1] (peptide 230 μM), “+++” in the data set on Molt3 cells [1] (peptide 910 μM) and “++++” with Molt3 cells [1] (peptide 1820 μM). Besides, the “Homotypic Adhesion Effect” value is “Enhance” in the data set with Molt3 cells [1] (peptide 230 μM); “Enhance” with Molt3 cells [1] (peptide 460 μM); “Block” with Molt3 cells [1] (peptide 910 μM); “Block” with Molt3 cells [1] (peptide 1820 μM); “binding enhancers” in the data set with Molt3 cells [2] (peptide 460 μM); “blockers of intercellular adhesion” in the data set with Molt3 cells [2] (peptide 910 μM). Further, the “MTT % Viability” value with Molt3 cells [3] (concentration not given) was 38%; in the data set on Molt3 cells [3] (peptide 230 μM), 38%; in the data set on Molt3 cells [3] (peptide 460 μM), 38%; in the data set with Molt3 cells [3] (peptide 910 μM) it was 38%; in the data set on Molt3 cells [3] (peptide 1820 μM) it was 43%.
